B1: His6-Sso2 (cytosolic domain, a.a. 1–270) (domain or fragment, yeast, UniProt P39926 1-270, looked up)
chain: MSNANPYENNNPYAENYEMQEDLNNAPTGHSDGSDDFVAFMNKINSINANLSRYENIINQIDAQHKDLLTQVSEEQEMELRRSLDDYISQATDLQYQLKADIKDAQRDGLHDSNKQAQAENCRQKFLKLIQDYRIIDSNYKEESKEQAKRQYTIIQPEATDEEVEAAINDVNGQQIFSQALLNANRRGEAKTALAEVQARHQELLKLEKTMAELTQLFNDMEELVIEQQENVDVIDKNVEDAQQDVEQGVGHTNKAVKSARKARKNKIRC
notes: Sso2, yeast t-SNARE, cytosolic domain a.a; 1-270; also called pG707
B5: Sec3 N-terminal domain (a.a. 75–320) (domain or fragment, yeast, UniProt P33332 75-320, looked up)
chain: SNFLAEQYERDRKAIINCCFSRPDHKTGEPPNNYITHVRIIEDSKFPSSRPPPDSKLENKKKRLLILSAKPNNAKLIQIHKARENSDGSFQIGRTWQLTELVRVEKDLEISEGFILTMSKKYYWETNSAKERTVFIKSLITLYIQTFEGHVPELVNWDLSLFYLDERSYQRAVITNRPGSVSPIKSPTSNFTTNTTQSVGSVPFSAPTERTRRSETESVNPVSTPASVEYHAGMKSLNKAPYSSNS
notes: Sec3, yeast exocyst subunit, N-terminal domain a.a; 75-320 (contains the PH domain); Cloned in the custom vector MalpET; tag cut off by tobacco etch virus protease; also called Sec3(a.a. 75–320); source: E. coli BL21(DE3), purified (Ni-HiTrap, HiTrap-Q HP, Superdex-200); not shown: MBP-His10, N-terminal, cleaved

Legend:
Conditions in all cases: both partners purified
[1] = molecular target: T1, GST-Sec3N (Sec3 N-terminus, a.a. 1–320) (yeast, UniProt P33332 1-320); assay: pull-down; GST-Sec3N on glutathione Sepharose with His6-Sso2 or His6-Sec9C, or with both in three orders of addition (simultaneous; Sec3N and Sso2 pre-incubated 30 min; Sso2 and Sec9C pre-incubated 2 h); 5 μg His6-Sec9C; Coomassie blue
T1 construct: Sec3, yeast exocyst subunit, N-terminus a.a; 1-320; also called pG1860; source: E. coli BL21(DE3), purified (Glutathione Sepharose 4B)
T1 sequence (looked up): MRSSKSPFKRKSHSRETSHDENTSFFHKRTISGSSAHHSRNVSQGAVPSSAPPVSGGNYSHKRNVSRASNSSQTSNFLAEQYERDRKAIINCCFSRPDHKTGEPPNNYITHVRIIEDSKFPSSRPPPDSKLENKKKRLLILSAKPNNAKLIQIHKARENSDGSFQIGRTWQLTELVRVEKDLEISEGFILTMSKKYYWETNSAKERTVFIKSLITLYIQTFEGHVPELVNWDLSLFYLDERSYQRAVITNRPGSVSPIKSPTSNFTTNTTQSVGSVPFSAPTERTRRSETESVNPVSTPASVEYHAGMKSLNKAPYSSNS

[2] = molecular target: T2, His6-Sso2-mutHL2 (a.a. 1–270, 170DVNGQ174 to 170GSSGG174) (yeast, UniProt P39926 1-270, 170DVNGQ174 to 170GSSGG174); assay: pull-down; time course: His6-Sso2 (2 μM) alone added to GST-Sec9C (20 μg) on glutathione Sepharose 4B, 100 μl, 25 °C; bound Sso2 quantified from Coomassie gels; apparent rate constant from a second-order fit
T2 construct: Sso2, yeast t-SNARE, cytosolic domain a.a; 1-270, mutated directly from pG707; also called pG1971
T2 sequence (looked up): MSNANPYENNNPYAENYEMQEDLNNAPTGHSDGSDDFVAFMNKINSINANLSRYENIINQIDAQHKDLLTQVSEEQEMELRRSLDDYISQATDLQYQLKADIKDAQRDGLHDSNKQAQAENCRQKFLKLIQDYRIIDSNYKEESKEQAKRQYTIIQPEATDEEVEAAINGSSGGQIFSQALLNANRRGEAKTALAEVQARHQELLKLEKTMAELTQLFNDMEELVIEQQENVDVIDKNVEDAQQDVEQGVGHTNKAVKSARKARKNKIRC

[3] = molecular target: B1; assay: as above
[4] = molecular target: B1; assay: pull-down; time course as a6, but His6-Sso2 (2 μM) pre-incubated with His6-Sec3N (2 μM) for 30 min at 25 °C before GST-Sec9C (20 μg) on glutathione Sepharose 4B; apparent rate constant from a second-order fit
[5] = molecular target: T1, GST-Sec3N (Sec3 N-terminus, a.a. 1–320); assay: co-sedimentation; liposomes containing Sso2 incubated with Sec9C in the presence or absence of Sec3N at 25 °C for 30 min; liposomes collected by sedimentation; SDS-PAGE, Coomassie blue; Sso2-free liposomes as control
[6] = molecular target: B5; assay: crystal structure; crystal form 1, space group C222(1); 0.1 M HEPES pH 7.0, 0.2 M NaCl, 25% PEG 3350; 2.20 Å
[7] = molecular target: T3, Sso2 (a.a. 1–270), as used in size-exclusion chromatography (yeast, UniProt P39926 1-270); assay: SEC; Superdex-200 16/60 column; proteins applied individually or in mixture, Sso2 with excess Sec3N
T3 construct: Sso2, yeast t-SNARE, a.a; The text says that this complex was later used for crystallization, for which the methods give Sso2 a.a; 36-227 with the His6 tag cleaved; the legend's limits are kept
T3 sequence (looked up): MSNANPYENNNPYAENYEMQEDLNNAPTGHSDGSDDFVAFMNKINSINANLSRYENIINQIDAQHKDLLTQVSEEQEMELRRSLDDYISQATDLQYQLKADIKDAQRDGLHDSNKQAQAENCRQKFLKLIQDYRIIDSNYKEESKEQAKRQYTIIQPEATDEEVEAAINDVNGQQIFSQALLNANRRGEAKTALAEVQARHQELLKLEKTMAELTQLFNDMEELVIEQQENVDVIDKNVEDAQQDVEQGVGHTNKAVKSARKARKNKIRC

B1
binding result [1]: binds

B2: GST-tagged Sec9 C-terminal SNARE domain (a.a. 414–651) (domain or fragment, yeast, UniProt P40357 414-651, looked up)
chain: EEARQQQEEDEAVDEIKQEIKFTKQSSVASTRNTLKMAQDAERAGMNTLGMLGHQSEQLNNVEGNLDLMKVQNKVADEKVAELKKLNRSILAVHVSNPFNSKRRRREREEQLKNRKIEEKLMREQTSQQLSQSTQRIEGAMNANNNISEVRERYQRKNVLEKAKRYQFENDEEDDEMELEIDRNLDQIQQVSNRLKKMALTTGKELDSQQKRLNNIEESTDDLDINLHMNTNRLAGIR
notes: Sec9, yeast t-SNARE (SNAP-23 homologue), C-terminal SNARE domain a.a; 414-651; also called GST-Sec9C; pG1067; source: E. coli BL21(DE3), purified (Glutathione Sepharose 4B)
binding result [2]: binds
kon [3]: 15.2 ± 0.6 M⁻¹ s⁻¹
kon [4]: 200 ± 90 M⁻¹ s⁻¹

B3: Sso2 reconstituted in liposomes (natural protein, yeast, UniProt P39926 1-295, looked up)
chain: MSNANPYENNNPYAENYEMQEDLNNAPTGHSDGSDDFVAFMNKINSINANLSRYENIINQIDAQHKDLLTQVSEEQEMELRRSLDDYISQATDLQYQLKADIKDAQRDGLHDSNKQAQAENCRQKFLKLIQDYRIIDSNYKEESKEQAKRQYTIIQPEATDEEVEAAINDVNGQQIFSQALLNANRRGEAKTALAEVQARHQELLKLEKTMAELTQLFNDMEELVIEQQENVDVIDKNVEDAQQDVEQGVGHTNKAVKSARKARKNKIRCLIICFIIFAIVVVVVVVPSVVETRK
notes: Sso2, yeast t-SNARE, called the full-length Sso2 in the fusion assays; also called Sso2 liposomes; t-SNARE liposomes reconstituted with Sso2; source: reconstituted in POPC/DOPS liposomes
binding result [5]: binds

B4: Sso2 Habc and SNARE motif (a.a. 36–227) (domain or fragment, yeast, UniProt P39926 36-227, looked up)
chain: DFVAFMNKINSINANLSRYENIINQIDAQHKDLLTQVSEEQEMELRRSLDDYISQATDLQYQLKADIKDAQRDGLHDSNKQAQAENCRQKFLKLIQDYRIIDSNYKEESKEQAKRQYTIIQPEATDEEVEAAINDVNGQQIFSQALLNANRRGEAKTALAEVQARHQELLKLEKTMAELTQLFNDMEELVIE
notes: Sso2, yeast t-SNARE, Habc and the SNARE motif, a.a; 36-227; Cloned in pET15b; tag removed by thrombin; also called Sso2 (a.a. 36–227); source: E. coli BL21(DE3), purified (Ni-HiTrap, HiTrap-Q HP, Superdex-200); not shown: His6, N-terminal, cleaved
binding result [6]: binds

B5
binding result [7]: binds

From PMC5267525, “Sec3 promotes the initial binary t-SNARE complex assembly and membrane fusion” (Nature Communications, 2017)
